The values below come from the RNAGym collection of RNA variant scans (doi:10.1021/acssynbio.7b00057).

B1: Pistol ribozyme (parent)
chain: GGGUCGUUGUUCCAUAAUCGCGUGGAUAUGGCACGCAAGUUUCUACCGGGCACCGUAAAUGUCCGACUGGAGCCGUUCGGGCGGCUAUAAACAGACCUCAGGCCCGAAGCGUGGCGGCACCUGCCGCCGGUGGUAAAAAAGAUCGGAAGAGCACACGUCU

The variants in this data set derive from B1. Briefly: aptazyme ON/OFF ratio, guanine; higher = stronger switching; co-transcriptional cleavage with and without guanine.
For the variant GGGUCGGCAAAUAAUAAUCGCGUGGAUAUGGCACGCAAGUUUCUACCGGGCACCGUAAAUGUCCGACUGGAGCCGUUCGGGCGGCUAUAAACAGACCUCAGGCCCGAAGCGUGGCGGCACCUGCCGCCGGUGGUAAAAAAGAUCGGAAGAGCACACGUCU [U7G U8C G9A U10A U11A C12U C13A], the “aptazyme ON/OFF ratio” value is 1.13.
The figure for GGGUCGGCAAAUGAUAAUCGCGUGGAUAUGGCACGCAAGUUUCUACCGGGCACCGUAAAUGUCCGACUGGAGCCGUUCGGGCGGCUAUAAACAGACCUCAGGCCCGAAGCGUGGCGGCACCUGCCGCCGGUGGUAAAAAAGAUCGGAAGAGCACACGUCU [U7G U8C G9A U10A U11A C12U C13G] is 1.15; for GGGUCGGCAAAUUAUAAUCGCGUGGAUAUGGCACGCAAGUUUCUACCGGGCACCGUAAAUGUCCGACUGGAGCCGUUCGGGCGGCUAUAAACAGACCUCAGGCCCGAAGCGUGGCGGCACCUGCCGCCGGUGGUAAAAAAGAUCGGAAGAGCACACGUCU [U7G U8C G9A U10A U11A C12U C13U] it is 1.14; for GGGUCGGCAAAUCAUAAUCGCGUGGAUAUGGCACGCAAGUUUCUACCGGGCACCGUAAAUGUCCGACUGGAGCCGUUCGGGCGGCUAUAAACAGACCUCAGGCCCGAAGCGUGGCGGCACCUGCCGCCGGUGGUAAAAAAGAUCGGAAGAGCACACGUCU [U7G U8C G9A U10A U11A C12U] it is 1.4.
The figure for GGGUCGGCAACCUAUAAUCGCGUGGAUAUGGCACGCAAGUUUCUACCGGGCACCGUAAAUGUCCGACUGGAGCCGUUCGGGCGGCUAUAAACAGACCUCAGGCCCGAAGCGUGGCGGCACCUGCCGCCGGUGGUAAAAAAGAUCGGAAGAGCACACGUCU [U7G U8C G9A U10A U11C C13U] is 1.08; for GGGUCGGCAACCGAUAAUCGCGUGGAUAUGGCACGCAAGUUUCUACCGGGCACCGUAAAUGUCCGACUGGAGCCGUUCGGGCGGCUAUAAACAGACCUCAGGCCCGAAGCGUGGCGGCACCUGCCGCCGGUGGUAAAAAAGAUCGGAAGAGCACACGUCU [U7G U8C G9A U10A U11C C13G] it is 1.05; for GGGUCGGCAACCAAUAAUCGCGUGGAUAUGGCACGCAAGUUUCUACCGGGCACCGUAAAUGUCCGACUGGAGCCGUUCGGGCGGCUAUAAACAGACCUCAGGCCCGAAGCGUGGCGGCACCUGCCGCCGGUGGUAAAAAAGAUCGGAAGAGCACACGUCU [U7G U8C G9A U10A U11C C13A] it is 1.1.
The result for GGGUCGGCAACUAAUAAUCGCGUGGAUAUGGCACGCAAGUUUCUACCGGGCACCGUAAAUGUCCGACUGGAGCCGUUCGGGCGGCUAUAAACAGACCUCAGGCCCGAAGCGUGGCGGCACCUGCCGCCGGUGGUAAAAAAGAUCGGAAGAGCACACGUCU [U7G U8C G9A U10A U11C C12U C13A] reads 1.14; that for GGGUCGGCAACUUAUAAUCGCGUGGAUAUGGCACGCAAGUUUCUACCGGGCACCGUAAAUGUCCGACUGGAGCCGUUCGGGCGGCUAUAAACAGACCUCAGGCCCGAAGCGUGGCGGCACCUGCCGCCGGUGGUAAAAAAGAUCGGAAGAGCACACGUCU [U7G U8C G9A U10A U11C C12U C13U], 1.16; that for GGGUCGGCAACUGAUAAUCGCGUGGAUAUGGCACGCAAGUUUCUACCGGGCACCGUAAAUGUCCGACUGGAGCCGUUCGGGCGGCUAUAAACAGACCUCAGGCCCGAAGCGUGGCGGCACCUGCCGCCGGUGGUAAAAAAGAUCGGAAGAGCACACGUCU [U7G U8C G9A U10A U11C C12U C13G], 1.13.
For the variant GGGUCGGCAAACAAUAAUCGCGUGGAUAUGGCACGCAAGUUUCUACCGGGCACCGUAAAUGUCCGACUGGAGCCGUUCGGGCGGCUAUAAACAGACCUCAGGCCCGAAGCGUGGCGGCACCUGCCGCCGGUGGUAAAAAAGAUCGGAAGAGCACACGUCU [U7G U8C G9A U10A U11A C13A], the “aptazyme ON/OFF ratio” value is 1.09.
Turning to GGGUCGGCAAACUAUAAUCGCGUGGAUAUGGCACGCAAGUUUCUACCGGGCACCGUAAAUGUCCGACUGGAGCCGUUCGGGCGGCUAUAAACAGACCUCAGGCCCGAAGCGUGGCGGCACCUGCCGCCGGUGGUAAAAAAGAUCGGAAGAGCACACGUCU [U7G U8C G9A U10A U11A C13U], the “aptazyme ON/OFF ratio” value came to 1.21.
The figure for GGGUCGGCAAACGAUAAUCGCGUGGAUAUGGCACGCAAGUUUCUACCGGGCACCGUAAAUGUCCGACUGGAGCCGUUCGGGCGGCUAUAAACAGACCUCAGGCCCGAAGCGUGGCGGCACCUGCCGCCGGUGGUAAAAAAGAUCGGAAGAGCACACGUCU [U7G U8C G9A U10A U11A C13G] is 1.04; for GGGUCGGCAAGUGAUAAUCGCGUGGAUAUGGCACGCAAGUUUCUACCGGGCACCGUAAAUGUCCGACUGGAGCCGUUCGGGCGGCUAUAAACAGACCUCAGGCCCGAAGCGUGGCGGCACCUGCCGCCGGUGGUAAAAAAGAUCGGAAGAGCACACGUCU [U7G U8C G9A U10A U11G C12U C13G] it is 1.2; for GGGUCGGCAAGUUAUAAUCGCGUGGAUAUGGCACGCAAGUUUCUACCGGGCACCGUAAAUGUCCGACUGGAGCCGUUCGGGCGGCUAUAAACAGACCUCAGGCCCGAAGCGUGGCGGCACCUGCCGCCGGUGGUAAAAAAGAUCGGAAGAGCACACGUCU [U7G U8C G9A U10A U11G C12U C13U] it is 1.21.
The figure for GGGUCGGCAAGUAAUAAUCGCGUGGAUAUGGCACGCAAGUUUCUACCGGGCACCGUAAAUGUCCGACUGGAGCCGUUCGGGCGGCUAUAAACAGACCUCAGGCCCGAAGCGUGGCGGCACCUGCCGCCGGUGGUAAAAAAGAUCGGAAGAGCACACGUCU [U7G U8C G9A U10A U11G C12U C13A] is 1.16.
The result for GGGUCGGCAAGCCAUAAUCGCGUGGAUAUGGCACGCAAGUUUCUACCGGGCACCGUAAAUGUCCGACUGGAGCCGUUCGGGCGGCUAUAAACAGACCUCAGGCCCGAAGCGUGGCGGCACCUGCCGCCGGUGGUAAAAAAGAUCGGAAGAGCACACGUCU [U7G U8C G9A U10A U11G] reads 1.87; that for GGGUCGGCAACCCAUAAUCGCGUGGAUAUGGCACGCAAGUUUCUACCGGGCACCGUAAAUGUCCGACUGGAGCCGUUCGGGCGGCUAUAAACAGACCUCAGGCCCGAAGCGUGGCGGCACCUGCCGCCGGUGGUAAAAAAGAUCGGAAGAGCACACGUCU [U7G U8C G9A U10A U11C], 1.11.
